# US20230407373A1 (priority 2020, published 2023)
# Test system: SARS-CoV-2 gRNA
# Assay type: binding
# Details: […]; LC-MS/MS; Probe I sample (first 199 lines of Table 2)
row,Molecule,target (unweighted spectral count of the protein in the RNP capture)
1,"RPUSD3 (protein, UniProt Q6P087 26-351, looked up) Mitochondrial mRNA …: LGVRPVPEDAGFGTEARHQRQPRGSCQRSGPLGDQPFAGLLPKNLSREELVDALRAAVVDRKGPLVTLNKPQGLPVTGKPGELTLFSVLPELSQSLGLREQELQVVRASGKESSGLVLLSSCPQTASRLQKYFTHARRAQRPTATYCAVTDGIPAASEGKIQAALKLEHIDGVNLTVPVKAPSRKDILEGVKKTLSHFRVVATGSGCALVQLQPLTVFSSQLQVHMVLQLCPVLGDHMYSARVGTVLGQRFLLPAENNKPQRQVLDEALLRRLHLTPSQAAQLPLHLHLHRLLLPGTRARDTPVELLAPLPPYFSRTLQCLGLRLQ",7
2,"SRSF9 (protein, UniProt Q13242 1-221, looked up) Serine/arginine-rich splicing …: MSGWADERGGEGDGRIYVGNLPTDVREKDLEDLFYKYGRIREIELKNRHGLVPFAFVRFEDPRDAEDAIYGRNGYDYGQCRLRVEFPRTYGGRGGWPRGGRNGPPTRRSDFRVLVSGLPPSGSWQDLKDHMREAGDVCYADVQKDGVGMVEYLRKEDMEYALRKLDDTKFRSHEGETSYIRVYPERSTSYGYSRSRSGSRGRDSPYQSRGSPHYFSPFRPY",6
3,"MARS2 (protein, UniProt Q96GW9 30-593, looked up) Methionine--tRNA ligase, …: SSGSLSAGDDACDVRAYFTTPIFYVNAAPHIGHLYSALLADALCRHRRLRGPSTAATRFSTGTDEHGLKIQQAAATAGLAPTELCDRVSEQFQQLFQEAGISCTDFIRTTEARHRVAVQHFWGVLKSRGLLYKGVYEGWYCASDECFLPEAKVTQQPGPSGDSFPVSLESGHPVSWTKEENYIFRLSQFRKPLQRWLRGNPQAITPEPFHHVVLQWLDEELPDLSVSRRSSHLHWGIPVPGDDSQTIYVWLDALVNYLTVIGYPNAEFKSWWPATSHIIGKDILKFHAIYWPAFLLGAGMSPPQRICVHSHWTVCGQKMSKSLGNVVDPRTCLNRYTVDGFRYFLLRQGVPNWDCDYYDEKVVKLLNSELADALGGLLNRCTAKRINPSETYPAFCTTCFPSEPGLVGPSVRAQAEDYALVSAVATLPKQVADHYDNFRIYKALEAVSSCVRQTNGFVQRHAPWKLNWESPVDAPWLGTVLHVALECLRVFGTLLQPVTPSLADKLLSRLGVSASERSLGELYFLPRFYGHPCPFEGRRLGPETGLLFPRLDQSRTWLVKAHRT",6
4,"FAM1204 (protein, UniProt Q9NZB2 1-1118, looked up) Constitutive coactivator of …: MGVQGFQDYIEKHCPSAVVPVELQKLARGSLVGGGRQRPPQTPLRLLVDADNCLHRLYGGFYTDWVSGGQWNHMLGYLAALAKACFGGNIELFVFFNGALEKARLHEWVKRQGNERQTAQQIVSHVQNKGTPPPKVWFLPPVCMAHCIRLALIRFHVKVAQSIEDHHQEVIGFCRENGFHGLVAYDSDYALCNIPYYFSAHALKLSRNGKSLTTSQYLMHEVAKQLDLNPNRFPIFAALLGNHILPDEDLASFHWSLLGPEHPLASLKVRAHQLVLPPCDVVIKAVADYVRNIQDTSDLDAIAKDVFQHSQSRTDDKVIRFKRAIGYYSATSKPMSFHPPHYLAARPGPFGMPGMVPPHVPPQMLNIPQTSLQAKPVAPQVPSPGGAPGQGPYPYSLSEPAPLTLDTSGKNLTEQNSYSNIPHEGKHTPLYERSSPINPAQSGSPNHVDSAYFPGSSTSSSSDNDEGSGGATNHISGNKIGWEKTGSHSEPQARGDPGDQTKAEGSSTASSGSQLAEGKGSQMGTVQPIPCLLSMPTRNHMDITTPPLPPVAPEVLRVAEHRHKKGLMYPYIFHVLTKGEIKIAVSIEDEANKDLPPAALLYRPVRQYVYGVLFSLAESRKKTERLAFRKNRLPPEFSPVIIKEWAAYKGKSPQTPELVEALAFREWTCPNLKRLWLGKAVEDKNRRMRAFLACMRSDTPAMLNPANVPTHLMVLCCVLRYMVQWPGARILRRQELDAFLAQALSPKLYEPDQLQELKIENLDPRGIQLSALFMSGVDMALFANDACGQPIPWEHCCPWMYFDGKLFQSKLLKASREKTPLIDLCDGQADQAAKVEKMRQSVLEGLSFSRQSHTLPFPPPPALPFYPASAYPRHFGPVPPSQGRGRGFAGVCGFGGPYGETVATGPYRAFRVAAASGHCGAFSGSDSSRTSKSQGGVQPIPSQGGKLEIAGTVVGHWAGSRRGRGGRGPFPLQVVSVGGPARGRPRGVISTPVIRTFGRGGRYYGRGYKNQAAIQGRPPYAASAEEVAKELKSKSGESKSSAMSSDGSLAENGVMAEEKPAPQMNGSTGDARAPSHSESALNNDSKTCNTNPHLNALSTDSACRREAALEAAVLNKEE",37
